No end group written: not given here.
T1: GCY-DLys-N-DArg-DCG (plasmin stable peptide)
T1 sequence: GCYKNRDCG

T2: GCYKNRDCG (plasmin sensitive peptide)
T2 sequence: GCYKNRDCG


Key:
[1] = tested on: T1, GCY-DLys-N-DArg-DCG (plasmin stable peptide)
[2] = tested on: T2, GCYKNRDCG (plasmin sensitive peptide)
[3] = target: receptors that recognize the sequence GRGDSPG; experiment: cell-based or functional assay

Sequence of plasmin (P00747 20-580): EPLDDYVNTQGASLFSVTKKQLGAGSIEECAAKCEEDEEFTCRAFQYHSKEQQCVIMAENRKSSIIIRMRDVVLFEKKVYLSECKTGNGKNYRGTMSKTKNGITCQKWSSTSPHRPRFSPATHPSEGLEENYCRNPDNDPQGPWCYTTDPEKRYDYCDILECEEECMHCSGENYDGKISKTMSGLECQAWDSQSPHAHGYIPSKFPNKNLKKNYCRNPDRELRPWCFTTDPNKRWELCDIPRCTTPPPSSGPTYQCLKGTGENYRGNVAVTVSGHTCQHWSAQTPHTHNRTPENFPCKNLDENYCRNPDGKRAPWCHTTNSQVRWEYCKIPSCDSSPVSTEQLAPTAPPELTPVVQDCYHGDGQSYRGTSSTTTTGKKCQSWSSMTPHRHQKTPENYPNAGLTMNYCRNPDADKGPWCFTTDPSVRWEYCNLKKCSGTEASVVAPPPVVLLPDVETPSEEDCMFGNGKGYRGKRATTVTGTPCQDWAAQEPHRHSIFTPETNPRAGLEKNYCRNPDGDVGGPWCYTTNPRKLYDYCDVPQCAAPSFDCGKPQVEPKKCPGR
Sequence of plasmin (P00747 581-810): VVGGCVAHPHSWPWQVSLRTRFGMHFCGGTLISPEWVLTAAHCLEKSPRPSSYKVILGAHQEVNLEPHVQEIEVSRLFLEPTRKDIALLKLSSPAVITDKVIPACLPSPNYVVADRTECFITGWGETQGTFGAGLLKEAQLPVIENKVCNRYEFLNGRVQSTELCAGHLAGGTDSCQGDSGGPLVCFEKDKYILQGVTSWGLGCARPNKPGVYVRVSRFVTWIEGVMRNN

| Molecule | degradation of PEG-triacrylate/peptide gel by 0.2 units of plasmin in 200 microliters, 37 C [1] | degradation of PEG-triacrylate/peptide gel by 0.2 units of plasmin in 200 microliters, 37 C [2] | peptide degradation by plasmin, analytical C18 HPLC, plasmin at 1/1000 the peptide concentration, 37 C [2] | adhesion and spreading of human foreskin fibroblasts on conjugate addition PEG gels carrying the peptide on one of every 12 acrylates, 6 hours after seeding [3] [%] |
| --- | --- | --- | --- | --- |
| plasmin | The DLys, DArg configuration gel has not been shown to degrade by plasminolysis. | The L-Lys, L-Arg configuration of the peptide was readily degraded by the enzyme. In one case, after 6 hours no gel remained. | most of the GCYKNRDCG peptide was degraded in approximately one hour at 37 °C |  |
| GC(PEG acrylate)GYGRGDSPG [… (RGD-containing adhesion peptide)] |  |  |  | 50 |

From patent publication US20030220245A1
